The target of this data set is HA-tagged mini HC (VH-CH1).

B1: wild-type human ERp23 (protein)
chain: DRAPLTATAPQLDDEEMYSAHMPAHLRCDACRAVAYQMWQNLAKAETKLHTSNSGGRRELSELVYTDVLDRSCSRNWQDYGVREVDQVKRLTGPGLSEGPEPSISVMVTGGPWPTRLSRTCLHYLGEFGEDQIYEAHQQGRGALEALLCGGPQGACSEKVSATREEL
For B1, the “oxidation of the CH1 domain of the mini HC” value (shortened to “oxidation”) is listed as “co-expression of wild-type human ERp23 resulted in oxidation of the CH1 domain in a portion of the HC even in the absence of LC” and the “percentage of the fully oxidized form of the mini HC” value is listed as “fully oxidizes ˜24% of the mini HC”.

B2: human ERp23 Cys171Ser mutant (protein)
chain: DRAPLTATAPQLDDEEMYSAHMPAHLRCDACRAVAYQMWQNLAKAETKLHTSNSGGRRELSELVYTDVLDRSCSRNWQDYGVREVDQVKRLTGPGLSEGPEPSISVMVTGGPWPTRLSRTCLHYLGEFGEDQIYEAHQQGRGALEALLSGGPQGACSEKVSATREEL
For B2, the “oxidation” value is on record as “All of the remaining single cysteine mutants had significantly reduced activity, which in most cases was similar to that observed when no ERp23 was co-expressed”.

B3: human ERp23 Cys178Ser mutant (protein)
chain: DRAPLTATAPQLDDEEMYSAHMPAHLRCDACRAVAYQMWQNLAKAETKLHTSNSGGRRELSELVYTDVLDRSCSRNWQDYGVREVDQVKRLTGPGLSEGPEPSISVMVTGGPWPTRLSRTCLHYLGEFGEDQIYEAHQQGRGALEALLCGGPQGASSEKVSATREEL
Turning to B3, the “oxidation” value is “also showed some activity, although it was slightly weaker than that observed with wild-type ERp23 or the Cys50Ser mutant”.

B4: human ERp23 Cys50-178Ser mutant (protein)
chain: DRAPLTATAPQLDDEEMYSAHMPAHLRSDACRAVAYQMWQNLAKAETKLHTSNSGGRRELSELVYTDVLDRSCSRNWQDYGVREVDQVKRLTGPGLSEGPEPSISVMVTGGPWPTRLSRTCLHYLGEFGEDQIYEAHQQGRGALEALLCGGPQGASSEKVSATREEL
Turning to B4, the “oxidation” value is recorded as “only the Cys50-178Ser mutant still retained activity”.

B5: human ERp23 Cys53Ser mutant (protein)
chain: DRAPLTATAPQLDDEEMYSAHMPAHLRCDASRAVAYQMWQNLAKAETKLHTSNSGGRRELSELVYTDVLDRSCSRNWQDYGVREVDQVKRLTGPGLSEGPEPSISVMVTGGPWPTRLSRTCLHYLGEFGEDQIYEAHQQGRGALEALLCGGPQGACSEKVSATREEL
With B5, the “oxidation” value was “All of the remaining single cysteine mutants had significantly reduced activity, which in most cases was similar to that observed when no ERp23 was co-expressed”.

B6: human ERp23 Cys95Ser mutant (protein)
chain: DRAPLTATAPQLDDEEMYSAHMPAHLRCDACRAVAYQMWQNLAKAETKLHTSNSGGRRELSELVYTDVLDRSSSRNWQDYGVREVDQVKRLTGPGLSEGPEPSISVMVTGGPWPTRLSRTCLHYLGEFGEDQIYEAHQQGRGALEALLCGGPQGACSEKVSATREEL
On to B6, for which the “oxidation” value is recorded as “All of the remaining single cysteine mutants had significantly reduced activity, which in most cases was similar to that observed when no ERp23 was co-expressed”.

B7: human ERp23 Cys143Ser mutant (protein)
chain: DRAPLTATAPQLDDEEMYSAHMPAHLRCDACRAVAYQMWQNLAKAETKLHTSNSGGRRELSELVYTDVLDRSCSRNWQDYGVREVDQVKRLTGPGLSEGPEPSISVMVTGGPWPTRLSRTSLHYLGEFGEDQIYEAHQQGRGALEALLCGGPQGACSEKVSATREEL
In the case of B7, the “oxidation” value is “All of the remaining single cysteine mutants had significantly reduced activity, which in most cases was similar to that observed when no ERp23 was co-expressed”.

B8: human ERp23 Cys50Ser mutant (protein)
chain: DRAPLTATAPQLDDEEMYSAHMPAHLRSDACRAVAYQMWQNLAKAETKLHTSNSGGRRELSELVYTDVLDRSCSRNWQDYGVREVDQVKRLTGPGLSEGPEPSISVMVTGGPWPTRLSRTCLHYLGEFGEDQIYEAHQQGRGALEALLCGGPQGACSEKVSATREEL
In the case of B8, the “percentage of the fully oxidized form of the mini HC” value is recorded as “showed a similar ability to oxidize the CH1 domain (i.e., 20%)”.

The values above are taken from US20090269810.
